B1: Pistol ribozyme (parent)
chain: GGGUCGUUGUUCCAUAAUCGCGUGGAUAUGGCACGCAAGUUUCUACCGGGCACCGUAAAUGUCCGACUGGAGCCGUUCGGGCGGCUAUAAACAGACCUCAGGCCCGAAGCGUGGCGGCACCUGCCGCCGGUGGUAAAAAAGAUCGGAAGAGCACACGUCU

Variants of: B1
Test: aptazyme ON/OFF ratio, guanine; higher = stronger switching; co-transcriptional cleavage with and without guanine

Variant	aptazyme ON/OFF ratio
GGGUCGAUCUAAGAUAAUCGCGUGGAUAUGGCACGCAAGUUUCUACCGGGCACCGUAAAUGUCCGACUGGAGCCGUUCGGGCGGCUAUAAACAGACCUCAGGCCCGAAGCGUGGCGGCACCUGCCGCCGGUGGUAAAAAAGAUCGGAAGAGCACACGUCU [U7A G9C U11A C12A C13G]	1.05
GGGUCGAUCUAAAAUAAUCGCGUGGAUAUGGCACGCAAGUUUCUACCGGGCACCGUAAAUGUCCGACUGGAGCCGUUCGGGCGGCUAUAAACAGACCUCAGGCCCGAAGCGUGGCGGCACCUGCCGCCGGUGGUAAAAAAGAUCGGAAGAGCACACGUCU [U7A G9C U11A C12A C13A]	1.03
GGGUCGAUCUAAUAUAAUCGCGUGGAUAUGGCACGCAAGUUUCUACCGGGCACCGUAAAUGUCCGACUGGAGCCGUUCGGGCGGCUAUAAACAGACCUCAGGCCCGAAGCGUGGCGGCACCUGCCGCCGGUGGUAAAAAAGAUCGGAAGAGCACACGUCU [U7A G9C U11A C12A C13U]	1.11
GGGUCGAUCUAACAUAAUCGCGUGGAUAUGGCACGCAAGUUUCUACCGGGCACCGUAAAUGUCCGACUGGAGCCGUUCGGGCGGCUAUAAACAGACCUCAGGCCCGAAGCGUGGCGGCACCUGCCGCCGGUGGUAAAAAAGAUCGGAAGAGCACACGUCU [U7A G9C U11A C12A]	1.07
GGGUCGAUCUAGCAUAAUCGCGUGGAUAUGGCACGCAAGUUUCUACCGGGCACCGUAAAUGUCCGACUGGAGCCGUUCGGGCGGCUAUAAACAGACCUCAGGCCCGAAGCGUGGCGGCACCUGCCGCCGGUGGUAAAAAAGAUCGGAAGAGCACACGUCU [U7A G9C U11A C12G]	1.08
GGGUCGAUCUAUCAUAAUCGCGUGGAUAUGGCACGCAAGUUUCUACCGGGCACCGUAAAUGUCCGACUGGAGCCGUUCGGGCGGCUAUAAACAGACCUCAGGCCCGAAGCGUGGCGGCACCUGCCGCCGGUGGUAAAAAAGAUCGGAAGAGCACACGUCU [U7A G9C U11A C12U]	1.09
GGGUCGAUCUAUGAUAAUCGCGUGGAUAUGGCACGCAAGUUUCUACCGGGCACCGUAAAUGUCCGACUGGAGCCGUUCGGGCGGCUAUAAACAGACCUCAGGCCCGAAGCGUGGCGGCACCUGCCGCCGGUGGUAAAAAAGAUCGGAAGAGCACACGUCU [U7A G9C U11A C12U C13G]	1.07
GGGUCGAUCUAUAAUAAUCGCGUGGAUAUGGCACGCAAGUUUCUACCGGGCACCGUAAAUGUCCGACUGGAGCCGUUCGGGCGGCUAUAAACAGACCUCAGGCCCGAAGCGUGGCGGCACCUGCCGCCGGUGGUAAAAAAGAUCGGAAGAGCACACGUCU [U7A G9C U11A C12U C13A]	1.1
GGGUCGAUCUAUUAUAAUCGCGUGGAUAUGGCACGCAAGUUUCUACCGGGCACCGUAAAUGUCCGACUGGAGCCGUUCGGGCGGCUAUAAACAGACCUCAGGCCCGAAGCGUGGCGGCACCUGCCGCCGGUGGUAAAAAAGAUCGGAAGAGCACACGUCU [U7A G9C U11A C12U C13U]	1.16
GGGUCGAUCUAGUAUAAUCGCGUGGAUAUGGCACGCAAGUUUCUACCGGGCACCGUAAAUGUCCGACUGGAGCCGUUCGGGCGGCUAUAAACAGACCUCAGGCCCGAAGCGUGGCGGCACCUGCCGCCGGUGGUAAAAAAGAUCGGAAGAGCACACGUCU [U7A G9C U11A C12G C13U]	1.08
GGGUCGAUCUAGAAUAAUCGCGUGGAUAUGGCACGCAAGUUUCUACCGGGCACCGUAAAUGUCCGACUGGAGCCGUUCGGGCGGCUAUAAACAGACCUCAGGCCCGAAGCGUGGCGGCACCUGCCGCCGGUGGUAAAAAAGAUCGGAAGAGCACACGUCU [U7A G9C U11A C12G C13A]	1.04
GGGUCGAUCUAGGAUAAUCGCGUGGAUAUGGCACGCAAGUUUCUACCGGGCACCGUAAAUGUCCGACUGGAGCCGUUCGGGCGGCUAUAAACAGACCUCAGGCCCGAAGCGUGGCGGCACCUGCCGCCGGUGGUAAAAAAGAUCGGAAGAGCACACGUCU [U7A G9C U11A C12G C13G]	1.08
GGGUCGAUCGGCGAUAAUCGCGUGGAUAUGGCACGCAAGUUUCUACCGGGCACCGUAAAUGUCCGACUGGAGCCGUUCGGGCGGCUAUAAACAGACCUCAGGCCCGAAGCGUGGCGGCACCUGCCGCCGGUGGUAAAAAAGAUCGGAAGAGCACACGUCU [U7A G9C U10G U11G C13G]	1.17
GGGUCGAUCGGCUAUAAUCGCGUGGAUAUGGCACGCAAGUUUCUACCGGGCACCGUAAAUGUCCGACUGGAGCCGUUCGGGCGGCUAUAAACAGACCUCAGGCCCGAAGCGUGGCGGCACCUGCCGCCGGUGGUAAAAAAGAUCGGAAGAGCACACGUCU [U7A G9C U10G U11G C13U]	1.1
GGGUCGAUCUACGAUAAUCGCGUGGAUAUGGCACGCAAGUUUCUACCGGGCACCGUAAAUGUCCGACUGGAGCCGUUCGGGCGGCUAUAAACAGACCUCAGGCCCGAAGCGUGGCGGCACCUGCCGCCGGUGGUAAAAAAGAUCGGAAGAGCACACGUCU [U7A G9C U11A C13G]	1.08
GGGUCGAUCUACUAUAAUCGCGUGGAUAUGGCACGCAAGUUUCUACCGGGCACCGUAAAUGUCCGACUGGAGCCGUUCGGGCGGCUAUAAACAGACCUCAGGCCCGAAGCGUGGCGGCACCUGCCGCCGGUGGUAAAAAAGAUCGGAAGAGCACACGUCU [U7A G9C U11A C13U]	1.07
GGGUCGAUCUACAAUAAUCGCGUGGAUAUGGCACGCAAGUUUCUACCGGGCACCGUAAAUGUCCGACUGGAGCCGUUCGGGCGGCUAUAAACAGACCUCAGGCCCGAAGCGUGGCGGCACCUGCCGCCGGUGGUAAAAAAGAUCGGAAGAGCACACGUCU [U7A G9C U11A C13A]	1.02
GGGUCGAUCUACCAUAAUCGCGUGGAUAUGGCACGCAAGUUUCUACCGGGCACCGUAAAUGUCCGACUGGAGCCGUUCGGGCGGCUAUAAACAGACCUCAGGCCCGAAGCGUGGCGGCACCUGCCGCCGGUGGUAAAAAAGAUCGGAAGAGCACACGUCU [U7A G9C U11A]	1.11

From the RNAGym collection of RNA variant scans (doi:10.1021/acssynbio.7b00057)
